{"source": "the DeepSol protein solubility set"}
{"experiment": "soluble on expression in E. coli; label from the status in PepcDB or PDB records"}
{"sequence": "MNGNSTNNEQLQQELATTQDQVASIIESFVELGVSIYDFPGTPEATKGMITNLQRNVDRLYKLNVRSNDPQSSLSKVDIPLEVVQYIEDGRNPDIYTREFVEAIRRSNQYQRGKMHGLKQLRDSLADKIVDEFPELKEPVEDIIKRTSPIDNVSNTH", "soluble on expression in E. coli": "not soluble"}
{"sequence": "GPGSMHEDGQFLRAFLLRVLANDMQRMLATNTCATYFRNIPLEPEYDASGNRTNTPENVVMEKRLRVMDDISKLLRTYVERAEYAANKSKDINRRIYFTAEQIETGDYGALIGPRGLVHQQLEKETNCHIVLVGRGITNPLKDTNPNAASMALEDPHVRITATTEEDLQTAAERIEWILSDEPEAVEFRENNRRRMAQVDGRYDPRTWMTAAEKRKKAAAEKAAAAGGAAAGEDETKAEKGRKREREEAPVEEEDTELNEFLEDL", "soluble on expression in E. coli": "soluble"}
{"sequence": "MADPGSVGHVFRRAFSWLPAQFASQSDAPVGAPRQFRSTEHLSIEAIAAFVDGELRMNAHLRAAHHLSLCAQCAAEVDDQSRARAALRDSHPIRIPSTLLGLLSEIPRCPPEGPSKGSSGGSSQGPPDGAAAGFGDRFADGDGGNRGRQSRVRR", "soluble on expression in E. coli": "soluble"}
{"sequence": "MSEFLTHPFEPFFDKDSKILILGSFPSIKSRQDGFYYQHPRNRFWPILETLFNAKLENITEQQAFLRKKHIALWDVLQSCKIKNSDDKTISYAKANDLNLILSQTKIQAIFTTGQSAYRFFVKFHPRLEAIALPSTSPANLNFSFEQLLQNYEIIKKFTKLEHHHHHH", "soluble on expression in E. coli": "soluble"}
{"sequence": "MGSDKIHHHHHHMIDPDDMDHCRHAIREGSYSFHAASKLLPSSVRDPALALYAFCRLADDEVDFGADKPAAVLALSERLEHAYQGRPRNHPTDRAFTAMIEEFDMPRALPEALLEGLAWDGMERRYATLSDLRSYSARVASAVGAMMCVLMRVRDEQALARACDLGVAMQLTNIARDVGEDAAERRLYLPTDWLEEEGIDIERLFTSPVSSPRLKRLTKRLLAEAHKLYLKSEPGIGRLPLAARPGIFAARHCYDAIGRNLAQHGYDNVNRRATTTGGHKMRLLGLSIVRAGLASILPESPVIFARPLPETAFLVEAAAHPAPNKDAWSDPLLSVLSQLKAQDRPHAAE", "soluble on expression in E. coli": "not soluble"}
{"sequence": "MAALMTPGTGAPPAPGDFSGEGSQGLPDPSPEPKQLPELIRMKRDGGRLSEADIRGFVAAVVNGSAQGAQIGAMLMAIRLRGMDLEETSVLTQALAQSGQQLEWPEAWRQQLVDKHSTGGVGDKVSLVLAPALAACGCKVPMISGRGLGHTGGTLDKLESIPGFNVIQSPEQMQVLLDQAGCCIVGQSEQLVPADGILYAARDVTATVDSLPLITASILSKKLVEGLSALVVDVKFGAGAVFPNQEQARELAKTLVGVGASLGLRVAAALTAMDKPLGRCVGHALEVEEALLCMDGAGPPDLRDLVTTLGGALLWLSGHAGTQAQGAARVAAALDDGSALGRFERMLAAQGVDPGLARALCSGSPAERRQLLPRAREQEELLAPADGTVELVRALPLALVLHELGAGRSRAGEPLRLGVGAELLVDVGQRLRRGTPWLRVHRDGPALSGPQSRALQEALVLSDRAPFAAPLPFAELVLPPQQ", "soluble on expression in E. coli": "soluble"}
{"sequence": "MAKTPVLLDRWGKPVKRAVLTEEISAATLGSVRSPITGYPADGLNPVRLASILREADAGDPVRYLELAETIEERDLHYLGVLGTRRRSVSQLDITVEAASDDPRDVEIADMIRDWLTRDELSDELFHMLDCIGKGYSFTEIIWDTSEGQWRPARLEWRDPRWFRFDRAALTTPLMLGPHGEELELTPFKFIFAEVKAKSGIALRSGLARAAAWAWMFKAFTQRDWAIFTQTYGQPLRLGRYGPGASEDDKATLFRAVANIAGDCAAIIPESMAIDFVETKSVGATADLYKQRADWLDQQISKAVLGQTATTDAVTGGLGSGKEHRQVQEDIERADAKALSGILNRDLIRPWVDLEYGPQARYPRLKIARPEPEDLKAMAEALAALVPIGLRVSQKKTRDRFGFDEPENDADVMGGTPAAAAVAAPPGADRPIKRFSGVFKGGEPPARPETALQAEAAPAALPASDDPAALLADRLAADAAPAMGAMIERVETMLAAAGSLAEFREMLLAGFPGIDAGDLATLMAQAMMAAHAGGRAAAEDAGA", "soluble on expression in E. coli": "not soluble"}
{"sequence": "MTREHPPEPLDFFIWTVEDVGSWLEEINLGGYRQIFKENGVNGEYLESMSVFTTEQILHFIRRHHMKWGDFITLCKELRRIKVACLKGEQRVRRPWWAPSCLSVVFVKAAKRNRQSRVVSLKLES", "soluble on expression in E. coli": "not soluble"}
{"sequence": "MSLSPEDLEATGARLVEELVEYRTRTQVSTAVIGMSGGVDSALTAALFKAAGWHVMGHTLPIEQDPTETDRGIEACAALGIEHRPLDLSGAYEAALAQLGELDPDLLSSDETPARTRRGNLRARLRMMTLYDQAHRLGGLVAGTDNFSELTAGFWTLHGDVGDLAPVQSLLKSWEVPWLARAYRVPEATWRAMPTDGLGIGGGDEAQIGATYLEWDILQFALAEALGDDPGLATRHLAFALRMDADRHAQEVLGTLIARMRATWHKRLNEGHHHHHH", "soluble on expression in E. coli": "not soluble"}
{"sequence": "MKLMFASDIHGSLPATERVLERFAQSGARWLVILGDVLNHGPRNALPEGYAPAQVAERLNAVATQIIAVRGNCDSEVDQMLLHFPITAPWQQILTQERRLFLTHGHLFGPTNLPALHTGDVLVYGHTHLPVAQQQEGLYHFNPGSVSIPKGGYAASYGILDDNVLSVIALNDQSIIAQVAINS", "soluble on expression in E. coli": "not soluble"}
{"sequence": "MGSDKIHHHHHHMNFPIDEKLIREKQNELHIKDLGMASIRDLVALVTNLEKATGTKFCRMEMGVPGLPAPQIGIETEIQKLREGVASIYPNLDGLPELKQEASRFAKLFVNIDIPARACVPTVGSMQGCFVSFLVANRTHKNREYGTLFIDPGFNLNKLQCRILGQKFESFDLFEYRGEKLREKLESYLQTGQFCSIIYSNPNNPTWQCMTDEELRIIGELATKHDVIVIEDLAYFGMDFRKDYSHPGEPLYQPSVANYTDNYILALSSSKAFSYAGQRIGVLMISGKLYEREYPDLEESFGRLRFGEALSSSALYALSSGATHSAQWGMAAMLKACNDGEYNFRDSVIEYGRKARIMKKMFLDNGFNIVYDKDGNEPLADGFYFTVGYKGMDSSKLIEKFVRYGMCAITLKTTGSKRNEAMRICTSLLPESQFPDLEKRLQMLNAEG", "soluble on expression in E. coli": "not soluble"}
{"sequence": "SVTSSQVMLMPAHDSAKPTGFGIMVTSLDLLRDHQKVIHTLWFIDDVVARELGGFDGFCRRERVLLLFVDSTNTTLSFTRNDMTCVPRQGGADSDHWLFKRHLALLLPLSFAQVYEGFISFYEEEDKHISWDIKSCSSSSHQ", "soluble on expression in E. coli": "not soluble"}
{"sequence": "MKVAIIACQKMVEMGCPGKEACVSCFKAINEKSGAFERYKDVELVAFTTCGGCPGRRFPMRVKLLKTAAGAEAIHIANCTFLQPECPYINFDEICKKLMEELEIPIVFGTHTLVKKGEVVCTCGDNKE", "soluble on expression in E. coli": "not soluble"}
{"sequence": "MSLEGTQMLATNKKCWDTVAPYFFQVDCLPKYGPYTASEDEIRLFDSIRKKKVLDIGCGSGHSLQYMAEQGAEELWGLDLSSTQIEIANKTLKDWNPKLVCGAMEEEGDIPKGYFDIVYSIYALGWTSDLRKTLELIYSYVKPGGSFIFSWEHPVYSNLQYGTEEVAIKSSYHEETPITFETFKGENVQATLHKRKISTYINELNRAGFKIERIEEPEPSSSLDGELAEPSTKYYSLYKARMVPTTFIIKARKEGHHHHHH", "soluble on expression in E. coli": "soluble"}
{"sequence": "MSLNAGAVKLDESMTPMQAMAAVAAECVDHIARNAAVLAEVDTLGVYRAGTPEHVHQLRVGVRRLRSAWRLFDGWIADPSETLAQGARTHFSAFGMARDQDVLADTIMPLLARAGMPALPAEAAPSNDNAQSLAADRAFQGWLLELLAWSLDVPAEAAPPALRKRLTGRLRRWHLKVIDEGLRFGALELEARHELRKRVKRLRYGLSFAESLLPAARLRTYRKQLARVQDLLGEINDLAVARDYYQAALQAHPQAWFAVGWIGARLDGLTPQAQEAFDQLAHAKPFWKEGHHHHHH", "soluble on expression in E. coli": "not soluble"}
{"sequence": "MGGIGRIGILGSGSWATALAKIILTSQPSINWFMRREEQAQGIKRTGRNPNYLRDAVFDPRKISFFTDSDLNSFFRASDVVVLVTPSPFIKSYLKRVRSSSMRDKLIINAIKGIVPDENVLVSEYLHDFCDVPNELIGVVSGPCHAEEVARERRSYLTVGCFDINKAKAMANVLRNDYVSCTTSQDVVGIEYASVLKNVYAIAAGICNGLQYGDNFQSVLMSNAIAEMNSFVNTVHLLEREITDSVYLGDLLVTAYSNYSRNRTFGNMIGKGYSVKSAQMEMEMIAEGYYGAKCVREVNKRYQVNMPIMNTVYEVLYEKRDAAEAITALTAHFK", "soluble on expression in E. coli": "not soluble"}
{"sequence": "MPTPPAASSLAAQMGESPAPLYARVKHMIALQIQNGTWPPHHRVPSESELVTQLGFSRMTINRALRELTVEGLLVRMQGVGTFVAEPKSQSALFEVHNIADEIAARGHRHTCKVMVLKEEAAGSERALALDMREGQRVFHSLIVHFENDIPVQIEDRFVNAQVAPDYLKQDFTLQTPYAYLSQVAPLTEGEHVVEAILAEADECKLLQIDAGEPCLLIRRRTWSGRQPVTAARLIHPGSRHRLEGRFTK", "soluble on expression in E. coli": "not soluble"}
{"sequence": "MGSDKIHHHHHHMSSGITPPLIAGNLALDFINTQFGVGADRYECLNDDSSVVEWLHQAGVLNDTLAAPPAGLVERARELREDMQTLIVSAREGRGADPAIVNQVLERGHPIERLEWVPAYAAFQKQTYRRDLTSESLLQPVAQALVELLTKEDLHLVKECQAPDCVLLFHDQTKSHRRRWCSMASCGNRMKAAAHRARKSAT", "soluble on expression in E. coli": "not soluble"}
{"sequence": "MVLMIVSGRSGSGKSVALRALEDMGFYCVDNLPVVLLPDLARTLADRQISAAVSIDVRNMPESPEIFEQAMNNLPGAFSPQLLFLDADRNTLIRRYSDTRRLHPLSSKNLSLESAIDKESDLLEPLRSRADLIVDTSEMSVHELAEMLRTRLLGKRERELTMVFESFGFKHGIPIDADYVFDVRFLPNPHWDPKLRPMTGLDKPVAAFLDRHTEVHNFIYQTRSYLELWLPMLETNNRSYLTVAIGCTGGKHRSVYIAEQLADYFRSRGKNVQSRHRTLEKRKT", "soluble on expression in E. coli": "not soluble"}
{"sequence": "MSLSVPRSGLSVQMAQPARPLRADAARNRARILGVAYEAFATEGLSVPIDEIARRAGVGAGTVYRHFPTKEALCAAVIGDRMPHLVDDGYVLLKSAGPGEALFTYLRSLVLHWGATDRGLVDALAGAGGIDILGVAPDAEDAFLTILSDLLYAAQYAGTARTDVGVREVKSILVGCQAMEAYNSALAERVTDVVVDGLRAAREGHHHHHH", "soluble on expression in E. coli": "soluble"}
{"sequence": "MGSDKIHHHHHHMILQVQPAKLIKRYKRFLADIELNCGEETTIHCANTGAMKGCAEPDDTVWYTTSTNTKRKYPFSWEITQSQDDHFICVNTLRANQLVEEALHLDLIKELSGFNELKREVKYGNENSRVDFLATYNNAPDTYIEVKSVTLLESGHGYFPDAVTTRGQKHLRELMDMVAQGHKAVLLFAVLHSGINDISAASHVDPIYAKLLKEARLAGVEIIAYKAGFSLQLGELDVKLVEKIPFIER", "soluble on expression in E. coli": "not soluble"}
{"sequence": "MEDPLGRLEWIKFLSAFYDKEDKAENYFNQQVSKVMATENKVSSLKKPKVAFGMVDNGKVYIPAKNSYAAKMVDMAGGDYIFKDLNNKSGYITLEDFYSKSKDADVLIYSSSKEYTPSLKSMLSAAPILKTIKPVKNKKVWCFGKDYYQAIDKTDEIIEDLASIFHPESFKGYKIKHYSHLEHHHHHH", "soluble on expression in E. coli": "soluble"}
{"sequence": "MKQMNVVLIGGGTGLSVLARGLREFPIDITAIVTVADNGGSTGKIRDVMDIPAPGDIRNVIAALSDSESILTQLFQYRFGENQVDGHSLGNLVIAGMTNITNDFGHAIKELSKVLNIKGQVIPSTNASVQLNAVMEDGEIVHGETNIPKTHKKIDRVFLEPSDVEPMNEAIEALEQADLIVLGPGSLYTSVISNLCVKGISEALLRTSAPKLYVSNVMTQPGETDNYDVKEHIDALTRQVGEPFIDFVICSSESYSKDVLQRYEEKNSKPVAVHKEQLKDSGIRVLTASNLVEISNEHYVRHNTKVLSKMIYELALELTSTIRFTPSDKKKMAGDPLEHHHHHH", "soluble on expression in E. coli": "soluble"}
